From the supplement of paper PMC11246515
± gives the standard deviation of the averaged measurements.

Test: total protein half-life in vivo (active degradation + dilution); higher = more stable protein
[1] = E. coli NCM3722 delta-clpP delta-lon delta-hslV, growth: N-lim chemostat, doubling time 6 h
[2] = E. coli NCM3722 delta-clpP, growth: N-lim chemostat, doubling time 6 h
[3] = E. coli NCM3722 delta-hslV, growth: N-lim chemostat, doubling time 6 h
[4] = E. coli NCM3722 delta-smpB, growth: N-lim chemostat, doubling time 6 h
[5] = wild type E. coli NCM3722, growth: C-lim chemostat, doubling time 3 h
[6] = wild type E. coli NCM3722, growth: C-lim chemostat, doubling time 6 h
[7] = wild type E. coli NCM3722, growth: C-lim chemostat, doubling time 12 h
[8] = wild type E. coli NCM3722, growth: N-lim chemostat, doubling time 6 h
[9] = wild type E. coli NCM3722, growth: N-lim chemostat, doubling time 12 h
[10] = wild type E. coli NCM3722, growth: P-lim chemostat, doubling time 6 h
[11] = wild type E. coli NCM3722, growth: P-lim chemostat, doubling time 12 h
[12] = E. coli NCM3722 delta-lon, growth: N-lim chemostat, doubling time 6 h

Sequence: MMKKFIAPLLALLVSGCQIDPYTHAPTLTSTDWYDVGMEDAISGSAIKDDDAFSDSQADRGLYLKGYAEGQKKTCQTDFTYARGLSGKSFPASCNNVENASQLHEVWQKGADENASTIRLN
- total protein half-life in vivo [1]: 3.02 ± 0.51 h
- total protein half-life in vivo [2]: 3.75 ± 0.11 h
- total protein half-life in vivo [3]: 4.8 h
- total protein half-life in vivo [4]: 3.95 ± 0.7 h
- total protein half-life in vivo [5]: 1.57 h
- total protein half-life in vivo [6]: 5.17 ± 0.12 h
- total protein half-life in vivo [7]: 8.56 ± 0.22 h
- total protein half-life in vivo [8]: 3.97 h
- total protein half-life in vivo [9]: 6.57 ± 0.068 h
- total protein half-life in vivo [10]: 4.95 h
- total protein half-life in vivo [11]: 10.9 h

Sequence: MRITIILVAPARAENIGAAARAMKTMGFSDLRIVDSQAHLEPATRWVAHGSGDIIDNIKVFPTLAESLHDVDFTVATTARSRAKYHYYATPVELVPLLEEKSSWMSHAALVFGREDSGLTNEELALADVLTGVPMVADYPSLNLGQAVMVYCYQLATLIQQPAKSDATADQHQLQALRERAMTLLTTLAVADDIKLVDWLQQRLGLLEQRDTAMLHRLLHDIEKNITK
- total protein half-life in vivo [2]: 4 ± 0.61 h
- total protein half-life in vivo [3]: 3.98 ± 0.83 h
- total protein half-life in vivo [12]: 4.08 ± 0.37 h
- total protein half-life in vivo [4]: 3.38 ± 0.046 h
- total protein half-life in vivo [6]: 5.62 ± 0.99 h
- total protein half-life in vivo [7]: 7.53 ± 0.58 h
- total protein half-life in vivo [8]: 3.72 ± 0.22 h
- total protein half-life in vivo [9]: 5.26 ± 0.45 h
- total protein half-life in vivo [10]: 4.87 ± 0.26 h
- total protein half-life in vivo [11]: 11.5 ± 2.5 h

Sequence: MSNKPFIYQAPFPMGKDNTEYYLLTSDYVSVADFDGETILKVEPEALTLLAQQAFHDASFMLRPAHQKQVAAILHDPEASENDKYVALQFLRNSEIAAKGVLPTCQDTGTAIIVGKKGQRVWTGGGDEETLSKGVYNTYIEDNLRYSQNAALDMYKEVNTGTNLPAQIDLYAVDGDEYKFLCVAKGGGSANKTYLYQETKALLTPGKLKNFLVEKMRTLGTAACPPYHIAFVIGGTSAETNLKTVKLASAHYYDELPTEGNEHGQAFRDVQLEQELLEEAQKLGLGAQFGGKYFAHDIRVIRLPRHGASCPVGMGVSCSADRNIKAKINREGIWIEKLEHNPGQYIPQELRQAGEGEAVKVDLNRPMKEILAQLSQYPVSTRLSLTGTIIVGRDIAHAKLKELIDAGKELPQYIKDHPIYYAGPAKTPAGYPSGSLGPTTAGRMDSYVDLLQSHGGSMIMLAKGNRSQQVTDACHKHGGFYLGSIGGPAAVLAQQSIKHLECVAYPELGMEAIWKIEVEDFPAFILVDDKGNDFFQQIVNKQCANCTK
- total protein half-life in vivo [1]: 5.77 ± 0.79 h
- total protein half-life in vivo [3]: 4.08 ± 0.13 h
- total protein half-life in vivo [12]: 4.19 ± 0.42 h
- total protein half-life in vivo [4]: 3.86 ± 0.25 h
- total protein half-life in vivo [5]: 3.08 ± 0.042 h
- total protein half-life in vivo [6]: 5.65 ± 0.69 h
- total protein half-life in vivo [7]: 9.34 ± 1.8 h
- total protein half-life in vivo [8]: 4.28 ± 0.48 h
- total protein half-life in vivo [9]: 5.98 ± 0.31 h
- total protein half-life in vivo [10]: 5.73 h
- total protein half-life in vivo [11]: 11.2 ± 0.73 h

Sequence: MSEKLQVVTLLGSLRKGSFNGMVARTLPKIAPASMEVNALPSIADIPLYDADVQQEEGFPATVEALAEQIRQADGVVIVTPEYNYSVPGGLKNAIDWLSRLPDQPLAGKPVLIQTSSMGVIGGARCQYHLRQILVFLDAMVMNKPEFMGGVIQNKVDPQTGEVIDQGTLDHLTGQLTAFGEFIQRVKI [P0AGE6]
- total protein half-life in vivo [1]: 6.73 ± 1.1 h
- total protein half-life in vivo [2]: 5.46 ± 0.56 h
- total protein half-life in vivo [3]: 5.61 ± 0.31 h
- total protein half-life in vivo [12]: 5.83 ± 0.28 h
- total protein half-life in vivo [4]: 5.24 ± 0.12 h
- total protein half-life in vivo [5]: 3.116 ± 0.014 h
- total protein half-life in vivo [6]: 5.74 ± 0.21 h
- total protein half-life in vivo [7]: 11.1 ± 0.21 h
- total protein half-life in vivo [8]: 5.27 ± 0.43 h
- total protein half-life in vivo [9]: 9.39 ± 0.36 h
- total protein half-life in vivo [10]: 5.31 ± 0.077 h
- total protein half-life in vivo [11]: 12.1 ± 0.48 h

Sequence: MSFVVIIPARYASTRLPGKPLVDINGKPMIVHVLERARESGAERIIVATDHEDVARAVEAAGGEVCMTRADHQSGTERLAEVVEKCAFSDDTVIVNVQGDEPMIPATIIRQVADNLAQRQVGMATLAVPIHNAEEAFNPNAVKVVLDAEGYALYFSRATIPWDRDRFAEGLETVGDNFLRHLGIYGYRAGFIRRYVNWQPSPLEHIEMLEQLRVLWYGEKIHVAVAQEVPGTGVDTPEDLERVRAEMR
- total protein half-life in vivo [1]: 4.88 ± 0.51 h
- total protein half-life in vivo [2]: 4.7 ± 0.29 h
- total protein half-life in vivo [3]: 4.68 ± 0.45 h
- total protein half-life in vivo [12]: 4.949 ± 0.04 h
- total protein half-life in vivo [4]: 4.68 ± 0.18 h
- total protein half-life in vivo [5]: 2.84 ± 0.45 h
- total protein half-life in vivo [6]: 6.6 ± 0.59 h
- total protein half-life in vivo [7]: 10.8 ± 0.44 h
- total protein half-life in vivo [8]: 4.72 ± 0.32 h
- total protein half-life in vivo [9]: 7.79 ± 0.56 h
- total protein half-life in vivo [10]: 5.81 ± 0.29 h
- total protein half-life in vivo [11]: 12.6 ± 0.66 h

Sequence: MDYFTLFGLPARYQLDTQALSLRFQDLQRQYHPDKFASGSQAEQLAAVQQSATINQAWQTLRHPLMRAEYLLSLHGFDLASEQHTVRDTAFLMEQLELREELDEIEQAKDEARLESFIKRVKKMFDTRHQLMVEQLDNETWDAAADTVRKLRFLDKLRSSAEQLEEKLLDF [P0A6L9]
- total protein half-life in vivo [1]: 4.89 ± 0.7 h
- total protein half-life in vivo [2]: 3.99 ± 0.75 h
- total protein half-life in vivo [3]: 3.26 ± 0.27 h
- total protein half-life in vivo [12]: 4.06 ± 0.18 h
- total protein half-life in vivo [4]: 3.04 ± 0.18 h
- total protein half-life in vivo [5]: 2.9 ± 0.23 h
- total protein half-life in vivo [6]: 4.74 ± 0.099 h
- total protein half-life in vivo [7]: 9.84 ± 1 h
- total protein half-life in vivo [8]: 3.07 ± 0.24 h
- total protein half-life in vivo [9]: 4.57 ± 0.19 h
- total protein half-life in vivo [10]: 5.45 ± 0.78 h
- total protein half-life in vivo [11]: 9.39 ± 0.82 h
